The record followed here is US7351689.

What all share (assay): cell-based or functional assay
Test [1] has as its target T1, zcyto24 (mouse IL-28) (mouse) (UniProt Q4VK74).
T1 sequence: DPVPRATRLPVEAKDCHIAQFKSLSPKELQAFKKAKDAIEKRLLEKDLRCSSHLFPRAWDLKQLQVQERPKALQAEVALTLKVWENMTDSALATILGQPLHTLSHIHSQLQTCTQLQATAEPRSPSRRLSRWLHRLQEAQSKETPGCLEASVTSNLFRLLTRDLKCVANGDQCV

The target in test [2] is T2, zcyto20 (IL-28A), human (human) (UniProt Q8IZJ0).
T2 sequence: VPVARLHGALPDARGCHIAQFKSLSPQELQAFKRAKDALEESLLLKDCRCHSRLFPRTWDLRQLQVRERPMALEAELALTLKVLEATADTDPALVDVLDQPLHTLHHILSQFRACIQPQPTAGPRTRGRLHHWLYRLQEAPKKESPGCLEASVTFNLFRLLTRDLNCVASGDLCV

In test [3] the target is zcyto21 (SEQ ID NO:15) (human) (UniProt Q8IU54).
Chain of zcyto21 (SEQ ID NO:15) (human) (Q8IU54 other isoform, or with tags, fused parts or gaps): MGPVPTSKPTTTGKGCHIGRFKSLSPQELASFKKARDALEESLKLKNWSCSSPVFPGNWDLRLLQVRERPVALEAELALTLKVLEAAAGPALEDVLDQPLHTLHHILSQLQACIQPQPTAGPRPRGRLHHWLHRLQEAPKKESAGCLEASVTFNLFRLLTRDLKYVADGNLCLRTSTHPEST
Test [4] addresses human IL-28 receptor on transfected 293 HEK cells (IL-28 receptor alpha subunit with endogenous CRF2-4) (human).

Chain of human IL-28 receptor on transfected 293 HEK cells (IL-28 receptor alpha subunit with endogenous CRF2-4) (human) (Q8IU57 whole entry, chain 1 of 2): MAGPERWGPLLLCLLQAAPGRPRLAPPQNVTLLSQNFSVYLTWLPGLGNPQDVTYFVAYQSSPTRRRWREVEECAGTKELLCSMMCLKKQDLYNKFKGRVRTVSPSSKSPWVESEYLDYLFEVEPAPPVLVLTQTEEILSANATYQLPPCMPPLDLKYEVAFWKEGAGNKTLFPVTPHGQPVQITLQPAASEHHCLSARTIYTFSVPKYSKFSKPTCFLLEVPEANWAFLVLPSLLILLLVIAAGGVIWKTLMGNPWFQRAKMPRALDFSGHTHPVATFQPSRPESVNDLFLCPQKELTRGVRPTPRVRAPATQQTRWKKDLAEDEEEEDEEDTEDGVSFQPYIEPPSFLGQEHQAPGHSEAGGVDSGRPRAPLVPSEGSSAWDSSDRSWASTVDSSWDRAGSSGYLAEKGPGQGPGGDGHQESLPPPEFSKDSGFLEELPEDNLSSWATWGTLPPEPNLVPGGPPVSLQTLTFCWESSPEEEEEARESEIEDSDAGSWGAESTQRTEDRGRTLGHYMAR
Chain of human IL-28 receptor on transfected 293 HEK cells (IL-28 receptor alpha subunit with endogenous CRF2-4) (human) (Q08334 whole entry, chain 2 of 2, further chain): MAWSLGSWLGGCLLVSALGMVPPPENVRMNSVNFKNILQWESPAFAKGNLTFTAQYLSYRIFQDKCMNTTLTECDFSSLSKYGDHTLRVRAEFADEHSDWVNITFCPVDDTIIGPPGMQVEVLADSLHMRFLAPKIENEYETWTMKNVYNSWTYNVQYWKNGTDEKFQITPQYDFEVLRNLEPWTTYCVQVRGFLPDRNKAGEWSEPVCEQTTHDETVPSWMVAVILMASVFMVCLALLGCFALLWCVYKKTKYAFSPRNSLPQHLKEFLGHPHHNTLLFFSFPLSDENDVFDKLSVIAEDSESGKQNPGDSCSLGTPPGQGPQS

B1: murine zcytor19-Ig homodimer (Fc fusion, mouse, UniProt Q8CGK5 21-227, looked up, not shown: a dimerising Fc or GST)
chain: RPRLAPPRNVTLFSQNFTVYLTWLPGLGSPPNVTYFVTYQSYIKTGWRPVEHCAGIKALVCPLMCLKKLNLYSKFKGRVQAASAHGRSPRVESRYLEYLFDVELAPPTLVLTQMEKILRVNATYQLPPCMPSLELKYQVEFWKEGLGSKTLFPDTPYGQPVQIPLQQGASRRHCLSARTVYTLIDIKYSQFSEPSCIFLEAPGDKRA
On to B1, for which the Percent Inhibition of Ligand-induced Interferon Stimulated Response Element (ISRE) Signaling by Soluble Receptors (10 ng/ml ligand, 10 micrograms/ml soluble receptor) is 89% in test [1], 91% in test [2] and 103% in test [3].

B2: human zcytor19-Fc/human CRF2-4-Fc heterodimer (Fc fusion, from a related filing, not shown: a dimerising Fc or GST)
chain 1: RPRLAPPQNVTLLSQNFSVYLTWLPGLGNPQDVTYFVAYQSSPTRRRWREVEECAGTKELLCSMMCLKKQDLYNKFKGRVRTVSPSSKSPWVESEYLDYLFEVEPAPPVLVLTQTEEILSANATYQLPPCMPPLDLKYEVAFWKEGAGNKTLFPVTPHGQPVQITLQPAASEHHCLSARTIYTFSVPKYSKFSKPTCFLLEVPEANWA
chain 2: MVPPPENVRMNSVNFKNILQWESPAFAKGNLTFTAQYLSYRIFQDKCMNTTLTECDFSSLSKYGDHTLRVRAEFADEHSDWVNITFCPVDDTIIGPPGMQVEVLADSLHMRFLAPKIENEYETWTMKNVYNSWTYNVQYWKNGTDEKFQITPQYDFEVLRNLEPWTTYCVQVRGFLPDRNKAGEWSEPVCEQTTHDETVPS
modifications: left off: a dimerising Fc or GST
Consider B2, for which the Percent Inhibition of Ligand-induced Interferon Stimulated Response Element (ISRE) Signaling by Soluble Receptors (10 ng/ml ligand, 10 micrograms/ml soluble receptor) came out at 47% in test [1], 16% in test [2] and 16% in test [3].

B3: human CRF2-4-Fc homodimer (Fc fusion, from a related filing)
chain: MVPPPENVRMNSVNFKNILQWESPAFAKGNLTFTAQYLSYRIFQDKCMNTTLTECDFSSLSKYGDHTLRVRAEFADEHSDWVNITFCPVDDTIIGPPGMQVEVLADSLHMRFLAPKIENEYETWTMKNVYNSWTYNVQYWKNGTDEKFQITPQYDFEVLRNLEPWTTYCVQVRGFLPDRNKAGEWSEPVCEQTTHDETVPS
modifications: left off: a dimerising Fc or GST
As to B3, the results for the Percent Inhibition of Ligand-induced Interferon Stimulated Response Element (ISRE) Signaling by Soluble Receptors (10 ng/ml ligand, 10 micrograms/ml soluble receptor) in test [1], in test [2] and in test [3] were 82%, 80% and 79%, respectively.

B4: human zcytor19-Fc homodimer (Fc fusion, not shown: a dimerising Fc or GST)
chain: RPRLAPPQNVTLLSQNFSVYLTWLPGLGNPQDVTYFVAYQSSPTRRRWREVEECAGTKELLCSMMCLKKQDLYNKFKGRVRTVSPSSKSPWVESEYLDYLFEVEPAPPVLVLTQTEEILSANATYQLPPCMPPLDLKYEVAFWKEGAGNKTLFPVTPHGQPVQITLQPAASEHHCLSARTIYTFSVPKYSKFSKPTCFLLEVPEANWA
For B4, the Percent Inhibition of Ligand-induced Interferon Stimulated Response Element (ISRE) Signaling by Soluble Receptors (10 ng/ml ligand, 10 micrograms/ml soluble receptor) in test [1] is 90%; in test [2], 92%; in test [3], 45%.

B5: IL-28B (SEQ ID NO: 6) (ligand)
chain: VPVARLRGALPDARGCHIAQFKSLSPQELQAFKRAKDALEESLLLKDCKCRSRLFPRTWDLRQLQVRERPVALEAELALTLKVLEATADTDPALGDVLDQPLHTLHHILSQLRACIQPQPTAGPRTRGRLHHWLHRLQEAPKKESPGCLEASVTFNLFRLLTRDLNCVASGDLCV
B5: in test [4], the ISRE Signaling of Transfected 293 Cells Following Class II Cytokine Stimulation (Fold Induction), ISRE-Luc./IL-28R, IL-28B 125 ng/ml (fold induction) was 104.
